Laboratory results taken from patent US20230310629A1 (Merck KGaA, published 2023).
Where no end group is shown, it is not given here.

B1: 1993-H02 with an HT186-D11 light chain (anti-MUC1 antibody H02) (antibody, V domains shown)
VH: QMQLVQSEAELKKPGASVKVSCKASGYSFTSHFMHWVRQAPGQGLEWMGWIDPVTGGTKYAQNFQGWVTMTRDTSIRTAYLELSRLRSDDTAMYYCAREARADRGQFDKWGQGTLVTVAS
VL: QSVLTQPPSVSVAPGKTARITCGGNNIGSKSVHWYQQKPGQAPALVIYYGSNRPSGIPERFSGSNSGNTATLTISRVEAGDEADYYCQVWDSSSDWVFGGGTKLTVL
notes: One molecule is used here for both experiments
B2: H02-scFv, the MUC1-binding arm of Molecule 1 (scFv)
scFv: QMQLVQSEAELKKPGASVKVSCKASGYSFTSHFMHWVRQAPGQGLEWMGWIDPVTGGTKYAQNFQGWVTMTRDTSIRTAYLELSRLRSDDTAMYYCAREARADRGQFDKWGQGTLVTVASGGGGSGGGGSGGGGSQSVLTQPPSVSVAPGKTARITCGGNNIGSKSVHWYQQKPGQAPALVIYYGSNRPSGIPERFSGSNSGNTATLTISRVEAGDEADYYCQVWDSSSDWVFGGGTKLTVL

Experiments:
[1] = biological target: T1, biotinylated synthetic VNTR peptide of MUC1 (APDTRPAPGSTAPPAC-biotin) (human); experiment: Biacore, human MUC1-VNTR; ka1
T1 construct: also called human MUC1-VNTR peptide
T1 peptide: APDTRPAPGSTAPPAC-biotin

[2] = biological target: T1, biotinylated synthetic VNTR peptide of …; experiment: Biacore, human MUC1-VNTR; kd1
[3] = biological target: T1, biotinylated synthetic VNTR peptide of …; experiment: Biacore, human MUC1-VNTR peptide
[4] = biological target: T2, fragment of human MUC1 immunodominant core peptide (APDTRPAPGSTAPPA) (human); experiment: co-crystallisation, X-ray structure
T2 construct: also called MUC1 peptide; human MUC1 truncated peptide
T2 peptide: APDTRPAPGSTAPPA

Binder	kon [1]	koff [2]	Kd [3]	binding result [4]
B1	126000 M⁻¹ s⁻¹	0.0017 s⁻¹	0.901 nM	
B2				binds
